# Measurements reported in IntAct's records for PubMed 29892012.
# B1: Coiled-coil alpha-helical rod protein 1 (Homo sapiens), Q8TD31 (parent)
# chain: MFPPSGSTGLIPPSHFQARPLSTLPRMAPTWLSDIPLVQPPGHQDVSERRLDTQRPQVTMWERDVSSDRQEPGRRGRSWGLEGSQALSQQAEVIVRQLQELRRLEEEVRLLRETSLQQKMRLEAQAMELEALARAEKAGRAEAEGLRAALAGAEVVRKNLEEGSQRELEEVQRLHQEQLSSLTQAHEEALSSLTSKAEGLEKSLSSLETRRAGEAKELAEAQREAELLRKQLSKTQEDLEAQVTLVENLRKYVGEQVPSEVHSQTWELERQKLLETMQHLQEDRDSLHATAELLQVRVQSLTHILALQEEELTRKVQPSDSLEPEFTRKCQSLLNRWREKVFALMVQLKAQELEHSDSVKQLKGQVASLQEKVTSQSQEQAILQRSLQDKAAEVEVERMGAKGLQLELSRAQEARRRWQQQTASAEEQLRLVVNAVSSSQIWLETTMAKVEGAAAQLPSLNNRLSYAVRKVHTIRGLIARKLALAQLRQESCPLPPPVTDVSLELQQLREERNRLDAELQLSARLIQQEVGRAREQGEAERQQLSKVAQQLEQELQQTQESLASLGLQLEVARQGQQESTEEAASLRQELTQQQELYGQALQEKVAEVETRLREQLSDTERRLNEARREHAKAVVSLRQIQRRAAQEKERSQELRRLQEEARKEEGQRLARRLQELERDKNLMLATLQQEGLLSRYKQQRLLTVLPSLLDKKKSVVSSPRPPECSASAPVAAAVPTRESIKGSLSVLLDDLQDLSEAISKEEAVCQGDNLDRCSSSNPQMSS
# partner: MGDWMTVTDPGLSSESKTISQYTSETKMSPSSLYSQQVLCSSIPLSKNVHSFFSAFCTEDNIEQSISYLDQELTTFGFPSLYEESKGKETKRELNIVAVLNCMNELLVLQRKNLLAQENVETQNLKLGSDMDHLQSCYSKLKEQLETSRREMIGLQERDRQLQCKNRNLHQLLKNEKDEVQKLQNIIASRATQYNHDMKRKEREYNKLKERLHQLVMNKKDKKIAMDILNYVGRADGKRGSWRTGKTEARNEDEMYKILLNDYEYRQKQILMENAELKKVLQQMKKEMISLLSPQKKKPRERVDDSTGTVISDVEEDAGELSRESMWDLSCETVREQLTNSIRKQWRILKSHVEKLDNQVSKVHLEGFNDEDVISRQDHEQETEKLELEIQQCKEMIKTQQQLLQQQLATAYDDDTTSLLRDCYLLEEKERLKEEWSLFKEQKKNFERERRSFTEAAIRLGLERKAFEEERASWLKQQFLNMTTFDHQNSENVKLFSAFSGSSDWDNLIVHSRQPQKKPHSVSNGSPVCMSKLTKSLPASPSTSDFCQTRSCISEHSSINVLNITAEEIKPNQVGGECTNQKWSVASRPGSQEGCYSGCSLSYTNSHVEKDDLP
# B2: Coiled-coil alpha-helical rod protein 1 (Homo sapiens), Q8TD31 (parent)
# chain: B1 chain
# partner: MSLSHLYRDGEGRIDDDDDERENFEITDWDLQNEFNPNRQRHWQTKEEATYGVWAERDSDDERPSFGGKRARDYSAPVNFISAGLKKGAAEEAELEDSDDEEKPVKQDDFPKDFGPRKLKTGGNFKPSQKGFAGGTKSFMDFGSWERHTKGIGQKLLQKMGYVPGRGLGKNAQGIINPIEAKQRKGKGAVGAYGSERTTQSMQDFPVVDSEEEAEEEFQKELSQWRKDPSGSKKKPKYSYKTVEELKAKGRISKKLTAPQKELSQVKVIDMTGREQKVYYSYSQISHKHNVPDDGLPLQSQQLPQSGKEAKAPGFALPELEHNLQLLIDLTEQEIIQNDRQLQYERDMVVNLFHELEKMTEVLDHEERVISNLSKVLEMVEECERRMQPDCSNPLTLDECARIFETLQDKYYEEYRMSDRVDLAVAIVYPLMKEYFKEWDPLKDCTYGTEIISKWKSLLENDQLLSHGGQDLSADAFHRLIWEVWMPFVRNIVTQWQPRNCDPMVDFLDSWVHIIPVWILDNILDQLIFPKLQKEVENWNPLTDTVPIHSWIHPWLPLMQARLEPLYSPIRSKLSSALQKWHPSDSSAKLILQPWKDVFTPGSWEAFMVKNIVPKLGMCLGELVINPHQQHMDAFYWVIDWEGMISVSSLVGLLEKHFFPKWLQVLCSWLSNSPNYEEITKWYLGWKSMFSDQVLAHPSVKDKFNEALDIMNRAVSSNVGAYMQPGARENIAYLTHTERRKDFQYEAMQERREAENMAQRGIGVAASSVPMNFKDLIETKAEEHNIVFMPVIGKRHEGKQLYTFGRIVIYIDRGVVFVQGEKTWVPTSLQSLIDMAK
# B3: Coiled-coil alpha-helical rod protein 1 (Homo sapiens), Q8TD31 (parent)
# chain: B1 chain
# partner: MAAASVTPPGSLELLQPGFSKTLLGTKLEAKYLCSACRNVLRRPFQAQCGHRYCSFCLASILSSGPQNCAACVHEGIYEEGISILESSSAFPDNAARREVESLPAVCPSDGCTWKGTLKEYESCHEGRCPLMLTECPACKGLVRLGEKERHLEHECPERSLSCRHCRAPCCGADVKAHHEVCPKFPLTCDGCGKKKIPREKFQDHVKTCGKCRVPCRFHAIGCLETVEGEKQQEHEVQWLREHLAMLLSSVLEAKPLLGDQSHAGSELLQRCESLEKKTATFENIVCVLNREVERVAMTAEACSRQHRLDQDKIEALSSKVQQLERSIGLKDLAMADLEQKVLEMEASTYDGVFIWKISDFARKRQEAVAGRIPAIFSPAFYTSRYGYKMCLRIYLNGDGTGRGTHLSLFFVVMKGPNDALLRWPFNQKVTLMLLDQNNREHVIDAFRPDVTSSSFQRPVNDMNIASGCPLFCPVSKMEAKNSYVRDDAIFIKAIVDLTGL
# B4: Coiled-coil alpha-helical rod protein 1 (Homo sapiens), Q8TD31 (parent)
# chain: B1 chain
# partner: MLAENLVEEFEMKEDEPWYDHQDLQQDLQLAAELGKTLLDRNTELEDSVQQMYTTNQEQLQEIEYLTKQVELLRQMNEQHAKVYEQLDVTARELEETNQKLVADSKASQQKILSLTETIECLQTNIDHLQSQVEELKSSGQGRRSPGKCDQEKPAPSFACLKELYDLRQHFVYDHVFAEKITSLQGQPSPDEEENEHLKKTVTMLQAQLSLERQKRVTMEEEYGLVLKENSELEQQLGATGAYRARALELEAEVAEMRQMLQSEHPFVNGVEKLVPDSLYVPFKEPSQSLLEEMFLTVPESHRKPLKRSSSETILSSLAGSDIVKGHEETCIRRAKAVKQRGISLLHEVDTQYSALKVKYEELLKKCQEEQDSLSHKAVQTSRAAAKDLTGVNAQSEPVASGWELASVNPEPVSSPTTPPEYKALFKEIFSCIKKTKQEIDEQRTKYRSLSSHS
# Variants of: B1
# Conditions: with adip_human SSX2IP
row,Variant,effect of a mutation on the interaction
1,W337R,disrupting interaction strength

# Variants of: B2
# Conditions: with tfp11_human TFIP11, Q9UBB9
row,Variant,effect of a mutation on the interaction
1,W337R,with no effect

# Variants of: B3
# Conditions: with traf2_human TRAF2, Q12933
row,Variant,effect of a mutation on the interaction
1,W337R,disrupting interaction strength

# Variants of: B4
# Conditions: with cdr2_human CDR2, Q01850
row,Variant,effect of a mutation on the interaction
1,W337R,disrupting interaction strength
